T1: RhoA complexed with Rho GDI (Bos taurus, UniProt P19803)
T1 construct: GST (N, cleaved yes); made in house; host or cells: yeast (RhoA, from membranes); E. coli (Rho GDI, pGEX)
T1 sequence (P19803 1-204): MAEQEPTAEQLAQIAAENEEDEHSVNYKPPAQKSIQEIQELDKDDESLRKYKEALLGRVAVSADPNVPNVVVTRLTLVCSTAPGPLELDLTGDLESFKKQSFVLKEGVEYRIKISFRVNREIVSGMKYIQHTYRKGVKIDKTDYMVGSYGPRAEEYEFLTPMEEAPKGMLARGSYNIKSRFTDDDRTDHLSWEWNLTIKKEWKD

B1: p75 in which alanine was replaced with valine at amino acid 423: p75 positions 273-427 of SEQ ID NO. 4 with alanine replaced with valine at amino acid 423 (protein)
chain: KRWNSCKQNKQGANSRPVNQTPPPEGEKLHSDSGISVDSQSLHDQQPHTQTASGQALKGDGGLYSSLPPAKREEVEKLLNGSAGDTWRHLAGELGYQPEHIDSFTHEACPVRALLASWATQDSATLDALLAALRRIQRADLVESLCSESTVTSPV
modifications: Homo sapien
B2: p75 ICD: GST-fused intracellular domain (ICD) of p75 (protein)
chain: KRWNSCKQNKQGANSRPVNQTPPPEGEKLHSDSGISVDSQSLHDQQTHTQTASGQALKGDGNLYSSLPLTKREEVEKLLNGDTWRHLAGELGYQPEHIDSFTHEACPVRALLASWGAQDSATLDALLAALRRIQRADIVESLCSESTATSPV
modifications: left off: a dimerising Fc or GST

Experiments:
male Wistar rats = assay: Spinal cord injury (dorsal half dissected, ninth thoracic vertebra), agent pumped to the injured site; type: in vivo, rat; settings: species not stated
Experimental: 200 g male Wistar rats were used. After the ninth thoracic vertebrae laminectomy was performed, the dorsal half of the spinal cord was dissected. A continuous osmotic pump was used to continuously administer either TAT(PTD domain)-fused Pep5 (TAT-[…]) (SEQ ID NO. 2) or TAT(PTD domain)-fused control peptide (TAT-[…]) (SEQ ID NO. 15) to the injured site for 6 weeks ([…]). In this case, the tip of a tube connected to the pump was left in the medullary space. After spinal cord injury, the functional recovery was assessed using the BBB score. The animals were observed on day 7, 14, 21, 28, 35, and 42 after injury. These experiments were carried out using techniques described in Fournier A. E., Takizawa, B. T., Strittmatter, S. M., J. Neurosci. 2003, 23, 1416-1423.
200 g male Wistar rats were used. After the ninth thoracic vertebrae laminectomy was performed, the dorsal half of the spinal cord was dissected. A continuous osmotic pump was used to continuously administer either TAT-fused Pep5 or TAT (PTD domain)-fused control peptide to the injured site.

[1] = target: T1, RhoA complexed with Rho GDI; assay: In vitro nucleotide exchange assay; type: biochemical; settings: high Mg2+; 50 nM complex, 90 nM GST-Dbl
Experimental: Lipid-modified RhoA was purified from yeast membranes as described (Forget, M. A., Desrosiers, R. R., Gingras, D. & Beliveau, R., Biochem. J. 361, 243-54(2002)). [^3H]GDP- or GDP-RhoA complexed with Rho GDI was obtained by first incubating GDP-RhoA with or without [^3H]GDP, followed by incubation with Rho GDI for 30 min, as described previously (Takahashi, K. et al., J. Biol. Chem. 272, 23371-23375 (1997)). The sample, subjected to gel filtration, was equilibrated with 20 mM Tris-HCl (pH 7.5) containing 5 mM MgCl2, 1 mM dithiothreitol and 0.1% CHAPS. The GDP dissociation and GTP binding assays were carried out by the filter binding method as described previously (Hart, M. J., Eva, A., Evans, T., Aaronson, S. A. & Cerione, R. A., Nature 354, 311-314 (1991)). In the [^3H]GDP dissociation assay, 50 nM of the complex was incubated for 20 min with various concentrations of GST-fused proteins in a reaction mixture (50 μl) containing 30 mM Tris-HCl (pH 7.5), 5 mM or 0.5 μM MgCl2, 1 (for low Mg) or 10 (for high Mg) mM EDTA, 0.1 mM GTP, 1 mM dithiothreitol, 0.12% CHAPS and 0.2mg/ml bovine serum albumin. In the [^35S] GTPγS binding assay, the complex was incubated as described above except that 1 μM [^35S] GTPγS was used instead of 0.1 mM GTP. At the indicated time, an aliquot of the reaction sample was removed, and passed through nitrocellulose filters (IPVH 000, Millipore). […]

Row | Molecule | nerve regeneration, similar experiments with modified amino acids (Example 2-8) (male Wistar rats) | Dbl stimulated dissociation of GDP from GDP-RhoA complexed with Rho GDI [1]
1 | B1 | nerve regeneration was similarly observed | –
2 | B2 | – | showed the inhibitory effect to the same extent as p75 HD
